Common to all, as to assay: ELISA on coated protein
For test [1], the target named is T1, HHLA2.
T1 construct: also called HHLA2-Fc (R&D Systems); B7-H7; not shown: Fc part and any linker
T1 chain: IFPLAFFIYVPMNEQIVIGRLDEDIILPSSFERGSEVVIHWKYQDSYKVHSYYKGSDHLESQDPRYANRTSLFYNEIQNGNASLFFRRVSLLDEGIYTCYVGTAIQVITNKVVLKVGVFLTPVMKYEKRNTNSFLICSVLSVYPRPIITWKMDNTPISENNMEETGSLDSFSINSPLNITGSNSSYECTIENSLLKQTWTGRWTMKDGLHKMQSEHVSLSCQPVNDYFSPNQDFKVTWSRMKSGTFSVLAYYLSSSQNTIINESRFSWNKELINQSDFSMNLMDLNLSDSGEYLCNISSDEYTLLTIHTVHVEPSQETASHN
Here is the method:
(§1) Recombinant purified ECDs (50-150 ng) of each putative target protein were coated, incubated with 150 ng of the indicated primary antibody, and binding was detected using a peroxidase-conjugated anti-human Fab secondary antibody. Heatmap represents averages of technical triplicates. (8B) Target validation via siRNA knockdown. H929 cells were transfected with siRNA pools targeting the putative antibody targets ICAM1, CADM1, and PTPRG. Cells were then subjected to cognate IgG binding analysis via flow cytometry. (NT, non-targeting siRNA).
(§2) ELISA ELISA was conducted as described previously. Briefly, 50-150 ng of antigen was coated overnight in half-area 96-well plates at 4° C., blocked with 3% BSA at 37° C. for 1 h, and 150 ng of chimeric rabbit/human IgG1 was added, incubating for 2 h at 37° C. […] After incubating at 37° C. for 15 min-1 h (depending on intensity of controls), data were acquired using a SpectraMax M5 plate reader (Molecular Devices).

Test [2] concerns the target T2, SLAMF7.
T2 construct: also called SLAMF7-StrepTag; not shown: StrepTag and any linker
T2 chain: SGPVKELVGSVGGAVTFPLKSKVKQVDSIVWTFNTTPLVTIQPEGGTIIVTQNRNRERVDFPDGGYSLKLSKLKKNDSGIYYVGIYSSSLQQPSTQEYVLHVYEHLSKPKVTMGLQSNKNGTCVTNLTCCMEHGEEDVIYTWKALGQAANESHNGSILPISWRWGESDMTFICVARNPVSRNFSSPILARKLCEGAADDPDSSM
Here is the method:
as §1, §2

Test [3] deals with T3, IL13RA1.
T3 construct: also called IL13RA1-Fc-His (R&D Systems)
T3 chain: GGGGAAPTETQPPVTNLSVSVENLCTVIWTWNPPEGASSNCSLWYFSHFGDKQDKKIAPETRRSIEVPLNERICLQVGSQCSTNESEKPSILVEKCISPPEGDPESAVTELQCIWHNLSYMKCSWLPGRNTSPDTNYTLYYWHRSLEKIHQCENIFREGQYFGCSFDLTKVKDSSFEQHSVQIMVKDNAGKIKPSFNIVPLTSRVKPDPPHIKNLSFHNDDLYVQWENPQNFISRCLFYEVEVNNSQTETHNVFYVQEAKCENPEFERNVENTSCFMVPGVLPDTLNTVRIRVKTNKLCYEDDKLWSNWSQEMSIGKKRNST
Here is the method:
as §1, §2

Test [4] has as its target T4, PTP4A3.
T4 construct: also called His-PTP4A3 (R&D Systems)
Here is the method: as §1, §2

The target in test [5] is T5, SELL.
T5 construct: also called SELL-Fc-His (R&D Systems); L-Selectin
T5 chain: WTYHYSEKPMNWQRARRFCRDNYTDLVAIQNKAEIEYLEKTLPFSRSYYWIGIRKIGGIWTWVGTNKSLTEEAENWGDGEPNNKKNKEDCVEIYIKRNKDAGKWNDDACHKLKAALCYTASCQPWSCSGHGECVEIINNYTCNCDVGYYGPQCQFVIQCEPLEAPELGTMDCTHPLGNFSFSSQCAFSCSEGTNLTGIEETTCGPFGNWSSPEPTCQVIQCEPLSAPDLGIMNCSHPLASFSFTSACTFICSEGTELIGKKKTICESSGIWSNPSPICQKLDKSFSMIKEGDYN
The procedure: as §1, §2

The target of test [6] is T6, ANXA1.
T6 construct: also called ANXA1-His (R&D Systems); not shown: His tag
T6 chain: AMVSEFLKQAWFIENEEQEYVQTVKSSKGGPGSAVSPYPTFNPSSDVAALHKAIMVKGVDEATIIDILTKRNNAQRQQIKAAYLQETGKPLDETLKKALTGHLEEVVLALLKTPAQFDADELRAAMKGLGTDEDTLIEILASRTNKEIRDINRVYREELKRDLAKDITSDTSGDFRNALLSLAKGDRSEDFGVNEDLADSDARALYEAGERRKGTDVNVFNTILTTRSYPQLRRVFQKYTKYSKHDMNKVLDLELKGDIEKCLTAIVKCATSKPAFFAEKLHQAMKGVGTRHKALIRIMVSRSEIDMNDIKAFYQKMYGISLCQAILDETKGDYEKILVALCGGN
The procedure: as §1, §2

In test [7] the target is T7, ICAM1-Fc (R&D Systems) (human, UniProt P05362 28-480).
T7 construct: Bought; also called ICAM-1/CD54; not shown: Fc of the bought fusion protein
Here is the method:
as §1, §2

The values that follow come from patent publication US20260049134A1 (UNIVERSITY OF FLORIDA RESEARCH FOUNDATION, published 2026).

T4 sequence (chain, as listed by the source limits assumed): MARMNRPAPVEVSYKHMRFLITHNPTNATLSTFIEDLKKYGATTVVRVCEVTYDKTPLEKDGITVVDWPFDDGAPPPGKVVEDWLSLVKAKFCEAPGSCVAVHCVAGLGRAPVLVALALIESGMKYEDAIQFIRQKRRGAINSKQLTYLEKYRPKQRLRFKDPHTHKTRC
T7 sequence (P05362 28-480): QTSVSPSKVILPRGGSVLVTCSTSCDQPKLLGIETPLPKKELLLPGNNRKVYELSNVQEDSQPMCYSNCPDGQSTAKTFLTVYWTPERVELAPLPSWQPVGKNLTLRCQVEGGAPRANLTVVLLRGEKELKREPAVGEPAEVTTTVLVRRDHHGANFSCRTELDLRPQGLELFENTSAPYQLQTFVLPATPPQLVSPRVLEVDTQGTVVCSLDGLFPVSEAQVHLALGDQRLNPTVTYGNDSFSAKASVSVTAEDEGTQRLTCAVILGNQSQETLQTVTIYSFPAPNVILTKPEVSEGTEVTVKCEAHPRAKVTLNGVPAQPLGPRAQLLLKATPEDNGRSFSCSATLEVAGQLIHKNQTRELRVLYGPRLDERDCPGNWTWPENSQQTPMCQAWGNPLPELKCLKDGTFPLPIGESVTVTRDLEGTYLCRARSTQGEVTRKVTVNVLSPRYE

B1: HW-42 chimeric rabbit-human IgG1 LA/LA/PG (antibody, V domains shown)
VH: QSVKESEGGLFKPADTLTLTCTVSGFSLSSNEISWVRQAPGEGLEYIGIIDTGGRAYYAVWARSRSTITRNTNLNTVTLKMTSLTAADTATYFCARGGVDTEWYAFSSWGPGTLVTVPS
VL: SFVLTQPASVQVNLGQTVSLTCTADTLSRRYASWYQQKPGQAPVLLIFRDTSRPSGVPDRFSGSSSGDTATLTISGAQAGDEADYYCATSDGSGSNYQYVFGGGTQLTVTG
notes: Fc-silenced (L234A/L235A/P329G) IgG1, lambda; Alexa Fluor 647-labeled in single-step flow cytometry; Cluster C-1
As for B1, the binding result in test [1], in test [2], in test [3], in test [4], in test [5] and in test [6] was “no binding (tested: 150 ng IgG1 per well)” each time.

B2: HW-113 chimeric rabbit-human IgG1 LA/LA/PG (antibody, V domains shown)
VH: QKQLVESGGGLVQPGGSLTLTCTVSGFSLNKYYMGWFRQAPGKGLEWIGVISRSGDTYYSSWAKGRFTISKASTTVDLRITSPTTEDTATYFCARDASSPGFHGDRLDLWGQGTLVTVSS
VL: SFVLTQPASVQVNLGQTVSLTCTADTLSRSYASWYQQKPGQAPVLLIYRDTSRPSGVPDRFSGSSSGNTATLTISGAQAGDEADYYCATSDGIGSNYLWVFGGGTQLTVTG
notes: Fc-silenced (L234A/L235A/P329G) IgG1, lambda; Alexa Fluor 647-labeled in single-step flow cytometry
For B2, the binding result in test [1], in test [2], in test [3], in test [4], in test [5] and in test [6] was “no binding (tested: 150 ng IgG1 per well)” each time.

B3: HW-70 chimeric rabbit-human IgG1 LA/LA/PG (antibody, V domains shown)
VH: QSLEESGGRLVTPGTPLTLTCTVSGFSLSSNAMSWVRQAPGKGLEWIGTIDGYGYTYYASWAKGRFTVSKTSTTVDLKITSPTTEDTATYFCAREIYLGSNFWGPGTLVTISS
VL: SFVLTQPASVQVNLGQTVSLTCTADTLSRRYASWYQQKPGQAPVLLIYRDTSRPSGVPDRFSGSSSGNTATLTISGAQAGDEADYYCATADGSGSSYQFVFGGGTQLTVTG
notes: as for B1
In the case of B3, the binding result in test [1], in test [2], in test [3], in test [4], in test [5] and in test [6] was “no binding (tested: 150 ng IgG1 per well)” throughout.

B4: HW-25 chimeric rabbit-human IgG1 LA/LA/PG (antibody, V domains shown)
VH: QSLEESGGRLVTPGTPLTLTCTVSGFSLSSYAMGWVRQAPGKGLEWIGIIDSRGSTYYATWAKGRFTISKTSTTVDLKITSPTTEDTATYFCAREDSYYYDSFNLWGPGTLVTVSS
VL: SFVLTQPASVQVNLGQTVSLTCTADTLSRRYASWYQQKPGQAPVLLIYRDTSRPSGVPDRFSGSSSGNTATLTISGAQAGDEADYYCATSDGSGSSYQCVFGGGTQLTVTG
notes: as for B1
On to B4, for which the binding result in test [1], in test [2], in test [3], in test [4], in test [5] and in test [6] was “no binding (tested: 150 ng IgG1 per well)” in each case.

B5: HW-1 chimeric rabbit-human IgG1 LA/LA/PG (antibody, V domains shown)
VH: QSLEESGGGLFKPTDTLTLTCTASGFSLGSSYAISWVRQAPGKELEWIGTIDSGRAYYARWAKSRSTITRNTNENTVTLKMTSLTAADTATYFCARDLIPTYSQDIWGPGTLVTISS
VL: SFVLTQPASVQVNLGQTVSLTCTADTLSRRYASWYQQKPGQAPVLLIYRDTSRPSGVPDRFSGSSSGNTATLTISGAQAGDEADYYCATSDGSGNSYQYVFGGGTQLTVTS
notes: Fc-silenced (L234A/L235A/P329G) IgG1, lambda; Alexa Fluor 647-labeled in single-step flow cytometry; Prototype of cluster C-1
In the case of B5, the binding result in test [1], in test [2], in test [3], in test [4], in test [7] and in test [5] was “no binding (tested: 150 ng IgG1 per well)” each time. Moreover, the binding result in test [6] was “no binding (tested: 150 ng IgG1 per well)”.

B6: HW-17 chimeric rabbit-human IgG1 LA/LA/PG (antibody, V domains shown)
VH: QSLGESRGRLVTPDETLTLTCTVSGIDLSSNAMSWVRQAPGEGLEWIGTINTGGRAYYASWAKGRFTISRTSTTVDLKMTSLTTEDTATYFCARERYSDGRAYDIWGPGTLVTISS
VL: SFVLTQPASVQVNLGQTVSLTCTADTLSRRYASWYQQKPGQAPVLLIYTDSNRPSGIPDRFSGSSSGNTATLTISGAQAGDEADYYCATDDGSGSIYQYVFGGGTQLTVTG
notes: as for B1
On to B6, for which the binding result in test [1], in test [2], in test [3], in test [4], in test [7] and in test [5] was “no binding (tested: 150 ng IgG1 per well)” in each case. Besides, the binding result in test [6] is “no binding (tested: 150 ng IgG1 per well)”.

B7: HW-8 chimeric rabbit-human IgG1 LA/LA/PG (antibody, V domains shown)
VH: QSLEESGGRLVTPGTPLTLTCTVSGFSLSSYAMSWVRQAPGKGLEWIGAISTGGSTTYASWAKGRFTISKTSSTTVDLKMTSLTTEDTATYFCVRHFRLWGPGTLVTISS
VL: QVLTQTPSSVSAAVGGTVTIKCQASQSIGSALAWFQQKPGQRPKLLIYRASNLASGVPSRFKGSGSGTEFALTISGVQREDAATYYCLGGAAAVWAFGAGTNVEIKR
notes: Fc-silenced (L234A/L235A/P329G) IgG1, kappa; Alexa Fluor 647-labeled in single-step flow cytometry; Cluster C-45
As to B7, the binding result in test [1], in test [2], in test [3], in test [4], in test [7] and in test [5] was “no binding (tested: 150 ng IgG1 per well)” in each case. Moreover, the binding result in test [6] was “no binding (tested: 150 ng IgG1 per well)”.
